Measurements as given in patent US20220033515A1 (Genentech, published 2022).
Positions count from the first letter of the chain named. Values joined by “and” are separate entries in the source; they are usually repeats but may differ in a detail not shown here. Equal values may be shown once. Read-outs that look alike come from different tables or passages of the source.

Key:
[1] = biological target: T1, human death receptor 5 (hDR5) (human, UniProt O14763 56-210); test: competitive phage ELISA
T1 construct: also called DR5 long; hDR5-1f

[2] = biological target: T2, HER2 extracellular domain (Her2-ECD) (human, UniProt P04626 23-652); test: equilibrium KD; method and format (Fab or IgG) not given; HER2, second number of the cell
T2 construct: extracellular domain; also called hHER2 extracellular domain (ECD)

[3] = biological target: T2, HER2 extracellular domain (Her2-ECD); test: competitive phage ELISA
hVEGF-D = biological target: T3, hVEGF-D (human, UniProt O43915 93-201); test: ELISA on immobilised protein
T3 sequence (looked up): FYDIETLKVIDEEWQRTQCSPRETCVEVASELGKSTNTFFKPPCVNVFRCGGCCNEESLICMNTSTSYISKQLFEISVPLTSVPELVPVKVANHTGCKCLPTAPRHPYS

[4] = biological target: T2, HER2 extracellular domain (Her2-ECD); test: ELISA on immobilised protein
[5] = biological target: bovine serum albumin (BSA) (bovine, UniProt P02769 25-607); test: ELISA on immobilised protein
[6] = biological target: T4, human vascular endothelial growth factor (hVEGF) (human, UniProt P15692-4 27-191); test: ELISA on immobilised protein
T4 construct: also called hVEGF-A; human vascular endothelial growth factor A

[7] = biological target: T5, epidermal growth factor receptor extracellular domain (hEGFR) (human, UniProt P00533 25-645); test: ELISA on immobilised protein
T5 construct: extracellular domain

hVEGF-C = biological target: T6, hVEGF-C (human, UniProt P49767 103-227); test: ELISA on immobilised protein
T6 sequence (looked up): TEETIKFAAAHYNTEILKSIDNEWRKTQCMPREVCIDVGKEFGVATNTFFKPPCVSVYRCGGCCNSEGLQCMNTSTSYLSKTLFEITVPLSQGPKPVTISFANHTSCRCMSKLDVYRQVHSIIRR

hVEGF109 [8] = biological target: T7, hVEGF109 (human, UniProt P15692 214-315); test: ELISA on immobilised target
T7 construct: range 8-109; also called VEGF (8-109)
T7 sequence (looked up): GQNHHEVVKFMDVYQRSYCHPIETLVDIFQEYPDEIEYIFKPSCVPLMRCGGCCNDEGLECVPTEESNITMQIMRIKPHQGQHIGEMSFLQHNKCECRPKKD

hVEGF165 = biological target: T8, hVEGF165 (human, UniProt P15692-4 27-191); test: ELISA on immobilised target
T8 construct: also called human VEGF165

murine VEGF (mVEGF) = biological target: T9, murine VEGF (mVEGF) (murine, UniProt Q00731-2 27-190); test: ELISA on immobilised target
T9 sequence (looked up): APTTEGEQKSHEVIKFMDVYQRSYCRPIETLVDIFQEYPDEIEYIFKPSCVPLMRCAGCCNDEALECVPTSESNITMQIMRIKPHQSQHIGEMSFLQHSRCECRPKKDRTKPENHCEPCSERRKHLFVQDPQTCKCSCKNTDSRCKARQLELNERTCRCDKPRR

[9] = biological target: T1, human death receptor 5 (hDR5); test: equilibrium KD; method and format (Fab or IgG) not given
[10] = biological target: T2, HER2 extracellular domain (Her2-ECD); test: single-spot competitive phage ELISA
[11] = biological target: T4, human vascular endothelial growth …; test: competitive phage ELISA
hVEGF109 [12] = biological target: T7, hVEGF109; test: single-spot competitive phage ELISA
[13] = biological target: T4, human vascular endothelial growth …; test: competitive phage ELISA; remark: listed apart in the source
hVEGF109 [14] = biological target: T7, hVEGF109; test: Biacore SPR
hVEGF109 [15] = biological target: T7, hVEGF109; test: Biacore SPR, steady state analysis (* for kon and koff)
[16] = biological target: T2, HER2 extracellular domain (Her2-ECD); test: Biacore SPR
[17] = biological target: T2, HER2 extracellular domain (Her2-ECD); test: single-spot competitive phage ELISA; remark: listed apart in the source
hVEGF109 [18] = biological target: T7, hVEGF109; test: single-spot competitive phage ELISA; remark: listed apart in the source
[19] = biological target: T2, HER2 extracellular domain (Her2-ECD); test: competitive phage ELISA; remark: listed apart in the source

B1: 4-2 (scFv, V domains shown)
VH: not shown
VL: DIQMTQSPSSLSASVGDRVTITCRASQRINSHTVAWYQQKPGKAPKLLIYWGSHLYSGVPSRFSGSGSGTDFTLTISSLQPEDFATYYCQQYSNRTPPTFGQGTKVEIK
For B1, the IC50 [1] was > 1000 nM.

B2: bH1 (antibody, V domains shown)
VH: not shown
VL: DIQMTQSPSSLSASVGDRVTITCRASQDIPRSISGYVAWYQQKPGKAPKLLIYWGSYLYSGVPSRFSGSGSGTDFTLTISSLQPEDFATYYCQQHYTTPPTFGQGTKVEIKR
notes: also called anti-hVEGF/Her2 bi-specific antibody
For B2, the Kd [2] was 26 nM and the IC50 [3] was 10 nM.

B3: 4-6 (scFv, V domains shown)
VH: not shown
VL: DIQMTQSPSSLSASVGDRVTITCRASQSVSSAVAWYQQKPGKAPKLLIYSASSLYSGVPSRFSGSRSGTDFTLTISSLQPEDFATYYCQQYSSSPPTFGQGTKVEIK
Work on B3 yielded an IC50 [1] of 16 nM.

B4: 4-1 IgG (antibody, V domains shown)
VH: not shown
VL: DIQMTQSPSSLSASVGDRVTITCRASQDIWNRRALAWYQQKPGKAPKLLIYEGSSLYSGVPSRFSGSGSGTDFTLTISSLQPEDFATYYCQQGGSYSSPPTFGQGTKVEIKR
notes: not shown: rest of the human IgG heavy chain constant region
B4: no binding (tested: 100 or 500 nM (text)) (hVEGF-D); no binding (tested: 100 or 500 nM (text)) [4]; no binding (tested: 100 or 500 nM (text)) [5]. B4: no binding (tested: 100 or 500 nM (text)) [6]; no binding (tested: 100 or 500 nM (text)) [7]; no binding (tested: 100 or 500 nM (text)) (hVEGF-C). B4: no binding (tested: 100 nM (text)) (hVEGF109 [8]); no binding (tested: 100 nM (text)) (hVEGF165); no binding (tested: 100 nM (text)) (murine VEGF (mVEGF)).

B5: 4-1 (antibody, V domains shown)
VH: not shown
VL: B4 VL
notes: also called 4-1 anti-hDR5
B5 showed a Kd [9] of 120 nM.

B6: 3-4 (scFv, V domains shown, not shown: large carriers; small tags and cut ends)
VH: not shown
VL: DIQMTQSPSSLSASVGDRVTITCRASQEVYSYVAWYQQKPGKAPKLLIYPASSLYSGVPSRFSGSGSGTDFTLTISSLQPEDFATYYCQQGFWIGPPTFGQGTKVEIK
notes: also called c3-4
Binder B6 has an OD450 without competitor [10] of 0.05 and an IC50 [11] of 32 nM.

B7: H10 (scFv, V domains shown)
VH: not shown
VL: DIQMTQSPSSLSASVGDRVTITCRASQDVFTSVAWYQQKPGKAPKLLIYDASYLYSGVPSRFSGSGSGTDFTLTISSLQPEDFATYYCQQRYIWAPPTFGQGTKVEIK
For B7, the OD450 without competitor [10] was 0.04, the “% signal, SSC +/- 50 or 100nM VEGF” value (hVEGF109 [12]) was 49% and the OD450 without competitor (hVEGF109 [12]) was 2.08. It also gave an IC50 [13] of 170 nM.

B8: H7 (scFv, V domains shown)
VH: not shown
VL: B6 VL with E28N, Y30W, S31D, Y32W, F92W, W93Y, G95A
notes: copies: 1 + 1
In the case of B8, the IC50 [13] is reported as 60 nM.

B9: 3-7 (antibody, V domains shown)
VH: not shown
VL: B6 VL with E28Y, V29I, Y30W, S31R, P50W, A51G, F92L, I94Y, G95S
notes: also called 3-7 hIgG; 3-7 anti-hVEGF
For B9, the IC50 [11] was 16 nM, the Kd (hVEGF109 [14]) was 3 nM and 7 nM and the koff (hVEGF109 [14]) was 0.0025 s⁻¹ and 0.0042 s⁻¹. For the same binder, the kon (hVEGF109 [14]) was 800000 M⁻¹ s⁻¹ and 580000 M⁻¹ s⁻¹.

B10: H4_D (antibody, V domains shown)
VH: not shown
VL: DIQMTQSPSSLSASVGDRVTITCRASQDIRSGSVAWYQQKPGKAPKLLIYWGSYLYSGVPSRFSGSGSGTDFTLTISSLQPEDFATYYCQQHYTTPPTFGQGTKVEIK
notes: also called H4_D hIgG
Work on B10 yielded a Kd (hVEGF109 [15]) of 2300 nM, a Kd [16] of 11 nM and a koff [16] of 0.0012 s⁻¹. For the same binder, the kon [16] was 100000 M⁻¹ s⁻¹.

B11: H11 (scFv, V domains shown)
VH: not shown
VL: B10 VL with R30M, S31L, Y54F
With B11 the OD450 without competitor [17] was 2.79.

B12: H4_N (antibody, V domains shown)
VH: not shown
VL: B10 VL with D28N, G52A
notes: also called H4_N hIgG; H4_N Fab
For B12, the Kd (hVEGF109 [15]) was 550 nM, the Kd [16] was 10 nM and 6 nM and the koff [16] was 0.0013 s⁻¹. The kon [16] was 140000 M⁻¹ s⁻¹ and 230000 M⁻¹ s⁻¹.

B13: H8 (scFv, V domains shown)
VH: not shown
VL: DIQMTQSPSSLSASVGDRVTITCRASQEIFPYYVAWYQQKPGKAPKLLIYLGSSLYSGVPSRFSGSGSGTDFTLTISSLQPEDFATYYCQQGWDGPPTFGQGTKVEIK
B13 was tested, and the OD450 without competitor [10] was 0.09, the “% signal, SSC +/- 50 or 100nM VEGF” value (hVEGF109 [12]) was 71.2% and the OD450 without competitor (hVEGF109 [12]) was 2.58. For the same binder, the IC50 [13] was 226 nM.

B14: H5 (row of FIG.8a) (scFv, V domains shown)
VH: not shown
VL: B10 VL with S31G, W51G, H92Y
With B14 the OD450 without competitor [17] was 2.87, the “% signal, SSC +/- 50nM Vegf” value (hVEGF109 [18]) was 88.8% and the OD450 without competitor (hVEGF109 [18]) was 2.77.

B15: bD1 (antibody, V domains shown)
VH: not shown
VL: DIQMTQSPSSLSASVGDRVTITCRASQNVSKHVAWYQQKPGKAPKLLIYWGSYLYSGVPSRFSGSGSGTDFTLTISSLQPEDFATYYCQQSYSGPPTFGQGTKVEIKR
B15 gave a Kd [2] of 200 nM, an IC50 [19] of 30 nM and a Kd [9] of 14000 nM.

B16: 4-5 IgG (antibody, V domains shown)
VH: not shown
VL: DIQMTQSPSSLSASVGDRVTITCRASQNVGRPVAWYQQKPGKAPKLLIYGGSSLYSGVPSRFSGSGSGTDFTLTISSLQPEDFATYYCQQYGSFGTPPTFGQGTKVEIKR
notes: as for B4
B16: no binding (tested: 100 or 500 nM (text)) (hVEGF-D); no binding (tested: 100 or 500 nM (text)) [4]; no binding (tested: 100 or 500 nM (text)) [5]. B16: no binding (tested: 100 or 500 nM (text)) [6]; no binding (tested: 100 or 500 nM (text)) [7]; no binding (tested: 100 or 500 nM (text)) (hVEGF-C). B16: no binding (tested: 100 nM (text)) (hVEGF109 [8]); no binding (tested: 100 nM (text)) (hVEGF165); no binding (tested: 100 nM (text)) (murine VEGF (mVEGF)).

B17: bD2 (antibody, V domains shown)
VH: not shown
VL: DIQMTQSPSSLSASVGDRVTITCRASQNIRNGGGLAWYQQKPGKAPKLLIYSASFLYSGVPSRFSGSGSGTDFTLTISSLQPEDFATYYCQQHYTTPPTFGQGTKVEIKR
With B17 the Kd [2] was 100 nM, the IC50 [19] was 17 nM and the Kd [9] was 67000 nM.

B18: 4-4 (scFv, V domains shown)
VH: not shown
VL: DIQMTQSPSSLSASVGDRVTITCRASQVVSMTVAWYQQKPGKAPKLLIYGASSLYSGVPSRFSGSGSGTDFTLTISSLQPEDFATYYCQQYGSYSAPPTFGQGTKVEIK
With B18 the IC50 [1] was > 1000 nM.
